{"source": "patent US20100015126A1", "about": "“Methods of Binding of Cross-Beta Structures By Chaperones” (priority 2006, published 2010)", "molecules": {"B1": {"name": "dOVA standard: heat-denatured chicken ovalbumin (protein)", "chain": "GSIGAASMEFCFDVFKELKVHHANENIFYCPIAIMSALAMVYLGAKDSTRTQINKVVRFDKLPGFGDSIEAQCGTSVNVHSSLRDILNQITKPNDVYSFSLASRLYAEERYPILPEYLQCVKELYRGGLEPINFQTAADQARELINSWVESQTNGIIRNVLQPSSVDSQTAMVLVNAIVFKGLWEKAFKDEDTQAMPFRVTEQESKPVQMMYQIGLFRVASMASEKMKILELPFASGTMSMLVLLPDEVSGLEQLESIINFEKLTEWTSSNVMEERKIKVYLPRMKMEEKYNLTSVLMAMGITDVFSSSANLSGISSAESLKISQAVHAAHAEINEAGREVVGSAEAGVDAASVSEEFRADHPFLFCIKHIATNAVLFFGRCVSP"}}, "key": {"immobilized BiP": {"biological_target": "T1, immobilized BiP (Homo sapiens, UniProt P11021)", "T1 construct": "The human BiP gene except the signal peptide encoding region was obtained from Geneart (Germany); linker […]; made in house; host or cells: HEK 293E cells, transient transfection, PABC674 vector; secreted into the medium", "T1 sequence (P11021 19-654)": "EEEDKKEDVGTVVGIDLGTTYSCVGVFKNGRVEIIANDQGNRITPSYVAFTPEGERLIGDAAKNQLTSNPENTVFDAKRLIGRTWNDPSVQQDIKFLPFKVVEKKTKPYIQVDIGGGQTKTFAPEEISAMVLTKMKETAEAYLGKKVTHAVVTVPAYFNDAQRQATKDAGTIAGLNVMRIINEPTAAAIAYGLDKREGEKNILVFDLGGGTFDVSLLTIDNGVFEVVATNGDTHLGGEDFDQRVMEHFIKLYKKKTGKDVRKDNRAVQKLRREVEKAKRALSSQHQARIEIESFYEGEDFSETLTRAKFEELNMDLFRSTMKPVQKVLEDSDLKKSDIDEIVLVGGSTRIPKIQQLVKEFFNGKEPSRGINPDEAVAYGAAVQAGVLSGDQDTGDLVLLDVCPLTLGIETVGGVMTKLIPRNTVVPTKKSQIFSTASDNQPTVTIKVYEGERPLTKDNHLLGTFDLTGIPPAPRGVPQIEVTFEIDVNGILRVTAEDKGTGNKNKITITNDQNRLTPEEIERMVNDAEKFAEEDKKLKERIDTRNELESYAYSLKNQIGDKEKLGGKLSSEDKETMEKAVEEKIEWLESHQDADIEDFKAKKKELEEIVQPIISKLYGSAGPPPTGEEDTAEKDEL", "test": "Depletion of solutions from misfolded proteins using immobilized BiP (ELISA)", "format": "binding", "settings": "BiP coated at 5 μg/ml; 1, 10, 100 μg/ml misfolded protein", "description": "We analysed whether recombinant human BiP with a C-terminal FLAG-tag and His-tag can be applied for depleting solutions from misfolded proteins comprising crossbeta structure.\nBiP was coated at a concentration of 5 μg/ml at Greiner Microlon high-binding plates, for 1 h at room temperature with motion. As a negative control buffer was coated. ELISAs were performed essentially as described before. […] All binding buffers were PBS/0.1% (v/v) Tween20. Binding of dOVA was assayed using monoclonal anti-chicken egg albumin antibody (Sigma, A6075, 1:10.000 dilution) and RAMPO (Dako Cytomation, P0260, 1:3.000). […] Background signals obtained with buffer coated wells that were subsequently overlayed with protein solutions (see below), were subtracted from signals obtained with wells with coated BiP."}, "[1]": {"biological_target": "T2, recombinant human HSP90beta (Homo sapiens, UniProt P08238)", "T2 construct": "purchased Dr. S. Rüdiger, Cellular Protein Chemistry, Utrecht University", "T2 sequence (P08238 whole entry)": "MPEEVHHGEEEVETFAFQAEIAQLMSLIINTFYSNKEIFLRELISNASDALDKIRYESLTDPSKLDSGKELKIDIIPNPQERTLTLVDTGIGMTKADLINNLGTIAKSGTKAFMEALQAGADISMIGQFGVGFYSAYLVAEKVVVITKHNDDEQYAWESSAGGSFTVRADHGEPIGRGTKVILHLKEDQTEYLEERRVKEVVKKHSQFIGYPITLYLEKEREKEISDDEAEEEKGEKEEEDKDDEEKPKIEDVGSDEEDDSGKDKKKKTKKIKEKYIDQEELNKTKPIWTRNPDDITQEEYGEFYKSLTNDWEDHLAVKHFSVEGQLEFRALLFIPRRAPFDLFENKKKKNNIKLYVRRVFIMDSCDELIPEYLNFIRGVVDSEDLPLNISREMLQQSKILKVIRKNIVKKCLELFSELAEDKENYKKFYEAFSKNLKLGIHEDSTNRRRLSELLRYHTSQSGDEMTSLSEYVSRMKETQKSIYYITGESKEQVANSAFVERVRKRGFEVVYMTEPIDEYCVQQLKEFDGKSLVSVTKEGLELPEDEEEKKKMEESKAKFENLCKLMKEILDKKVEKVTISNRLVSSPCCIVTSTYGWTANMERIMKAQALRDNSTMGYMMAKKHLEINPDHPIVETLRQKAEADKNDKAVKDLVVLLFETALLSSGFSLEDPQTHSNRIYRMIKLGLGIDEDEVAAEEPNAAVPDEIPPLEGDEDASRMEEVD", "test": "ELISA: binding of HSP90 to immobilized (misfolded) protein ligands", "settings": "5 mM DTT in binding buffer", "description": "Recombinant human HSP90beta was bought from Dr. S. Rüdiger (Cellular Protein Chemistry, Department of Chemistry, Faculty of Science, Utrecht University). HSP90beta eluted from an anion exchange column was supplied in 35 mM Bis-Tris/25mM Tris, 5 mM DTT, approximately 385 mM NaCl, approximately pH 9.0. The HSP90beta concentration was 5.0 μM (450 μg/ml with a MW of 90.000 Da; extinction coefficient of 53740 l/(mol*cm)). The supplied frozen stock is kept at −80° C. Before use, the stock is quickly thawed almost completely in a 37° C. water bath, and kept at wet ice. Before use, the HSP90beta solution is centrifuged for 5 minutes at 16,000*g at 4° C. During dilution of HSP90beta solution, 5 mM DTT should be incorporated in the dilution buffer, to keep free Cys residues. Thawed HSP90beta was aliquoted and snap frozen in liquid nitrogen before re-storage at −80° C.\nBinding of chaperones to immobilized (misfolded) protein ligands was determined using an enzyme linked immuno sorbent assay (ELISA) approach. […] After 5 washes with wash buffer followed by two washes with PBS, binding of antibodies was assessed. […] Plates were read at 450 nm. Triplicates were averaged and standard deviations calculated. […]"}}}
{"molecule": "B1", "values": [{"measurement": "Extraction from solution by immobilized BiP", "setting": "immobilized BiP", "value": "can be extracted"}, {"measurement": "Binding of concentration series of HSP90 to coated ligand", "setting": "[1]", "value": "did also not bind"}]}
